# From paper PMC3093132
# B1: 5'-recessed-end substrate (gap mimic) (dsDNA)
# DNA 1: TCGACTAGCG
# DNA 2: CGCTAGTCGACAC
# modifications: 5' phosphate on strand 1
# Biological target: hExo1 catalytic domain D173A (Homo sapiens, UniProt Q9UQ84 1-352, D173A)
# Assay: crystal structure
# Sequence of hExo1 catalytic domain D173A (Q9UQ84 1-352 D173A): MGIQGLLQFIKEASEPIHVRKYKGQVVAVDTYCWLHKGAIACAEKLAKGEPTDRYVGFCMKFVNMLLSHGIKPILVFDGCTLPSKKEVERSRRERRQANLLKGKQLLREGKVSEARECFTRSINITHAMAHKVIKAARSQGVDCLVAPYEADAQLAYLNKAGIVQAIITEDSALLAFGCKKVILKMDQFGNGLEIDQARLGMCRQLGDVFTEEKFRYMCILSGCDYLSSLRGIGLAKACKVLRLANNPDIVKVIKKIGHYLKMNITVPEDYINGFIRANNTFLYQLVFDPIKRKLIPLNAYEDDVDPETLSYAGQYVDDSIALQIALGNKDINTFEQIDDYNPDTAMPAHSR
binder,measurement,value
B1,binding result,binds
